The labels stand for the following.
B1: CDC14A (parent)
chain: LWVQGDIFRSKLKNRPSSEGSINK
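Also: lentivirally expressed fusions sorted by FACS into six bins by GFP to DsRed ratio, PSI derived from sequencing read proportions per bin multiplied by bin number.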

In this series the parent is B1. Kind of series: protein stability index of a GFP-peptide fusion (GPS, HEK-293T) (PSI 1-6); higher = more stable. As to conditions: c terminus: a fixed tail appended.
As to LWVQGDIFRSVLKNRPSSEGSINK [K11V], the protein stability index came out at 2.36.
The result for LWVQGDIFRSMLKNRPSSEGSINK [K11M] reads 2.49.
The result for LWVQGDIFRSCLKNRPSSEGSINK [K11C] reads 2.22.
The result for LWVQGDIFRSNLKNRPSSEGSINK [K11N] reads 3.
For the variant LWVQGDIFRSQLKNRPSSEGSINK [K11Q], the protein stability index worked out at 2.33.
The result for LWVQGDIFRSWLKNRPSSEGSINK [K11W] reads 2.04.
Next, LWVQGDIFRSLLKNRPSSEGSINK [K11L]: 2.23; LWVQGDIFRSSLKNRPSSEGSINK [K11S]: 2.99.
On to LWVQGDIFRSGLKNRPSSEGSINK [K11G], for which the protein stability index was found to be 3.68.
Next, LWVQGDIFRSFLKNRPSSEGSINK [K11F]: 2.3.
The result for LWVQGDIFRSELKNRPSSEGSINK [K11E] reads 2.63; that for LWVQGDIFRSILKNRPSSEGSINK [K11I], 1.66; that for LWVQGDIFRSPLKNRPSSEGSINK [K11P], 3.22.
Next, LWVQGDIFRSYLKNRPSSEGSINK [K11Y]: 1.93; LWVQGDIFRSDLKNRPSSEGSINK [K11D]: 2.38.
As to LWVQGDIFRSALKNRPSSEGSINK [K11A], the protein stability index turned out to be 2.26.
The result for LWVQGDIFRSHLKNRPSSEGSINK [K11H] reads 2.69.
As to LWVQGDIFRSRLKNRPSSEGSINK [K11R], the protein stability index was 2.72.
The result for LWVQGDAFRSKLKNRPSSEGSINK [I7A] reads 3.29.
As for LWVQGDRFRSKLKNRPSSEGSINK [I7R], the protein stability index came out at 2.31.
Next, LWVQGDVFRSKLKNRPSSEGSINK [I7V]: 2.98; LWVQGDGFRSKLKNRPSSEGSINK [I7G]: 2.83; LWVQGDCFRSKLKNRPSSEGSINK [I7C]: 3.09.
Next, LWVQGDQFRSKLKNRPSSEGSINK [I7Q]: 2.97; LWVQGDEFRSKLKNRPSSEGSINK [I7E]: 3.71.
The result for LWVQGDYFRSKLKNRPSSEGSINK [I7Y] reads 2.66; that for LWVQGDSFRSKLKNRPSSEGSINK [I7S], 3.21.
With LWVQGDHFRSKLKNRPSSEGSINK [I7H], the protein stability index came to 3.37.
Next, LWVQGDDFRSKLKNRPSSEGSINK [I7D]: 3.35; LWVQGDNFRSKLKNRPSSEGSINK [I7N]: 3.82.
On to LWVQGDKFRSKLKNRPSSEGSINK [I7K], for which the protein stability index stood at 3.54.
Next, LWVQGDMFRSKLKNRPSSEGSINK [I7M]: 2.31; LWVQGDWFRSKLKNRPSSEGSINK [I7W]: 1.71.
In the case of LWVQGDPFRSKLKNRPSSEGSINK [I7P], the protein stability index was 3.15.
The result for LWVQGDLFRSKLKNRPSSEGSINK [I7L] reads 2.04; that for LWVQGDFFRSKLKNRPSSEGSINK [I7F], 2.01; that for LWVQGDTFRSKLKNRPSSEGSINK [I7T], 3.3.
The result for LWVQGDIFESKLKNRPSSEGSINK [R9E] reads 3.21; that for LWVQGDIFQSKLKNRPSSEGSINK [R9Q], 2.91; that for LWVQGDIFWSKLKNRPSSEGSINK [R9W], 1.88.
Regarding LWVQGDIFVSKLKNRPSSEGSINK [R9V], the protein stability index amounted to 2.65.
Next, LWVQGDIFLSKLKNRPSSEGSINK [R9L]: 2.35; LWVQGDIFSSKLKNRPSSEGSINK [R9S]: 2.6; LWVQGDIFNSKLKNRPSSEGSINK [R9N]: 3.4.
Next, LWVQGDIFYSKLKNRPSSEGSINK [R9Y]: 2.37.
In the case of LWVQGDIFTSKLKNRPSSEGSINK [R9T], the protein stability index was 2.85.
Next, LWVQGDIFGSKLKNRPSSEGSINK [R9G]: 2.56; LWVQGDIFASKLKNRPSSEGSINK [R9A]: 3.05.
With LWVQGDIFMSKLKNRPSSEGSINK [R9M], the protein stability index turned out to be 2.18.
Consider LWVQGDIFDSKLKNRPSSEGSINK [R9D], for which the protein stability index was found to be 3.68.
The result for LWVQGDIFISKLKNRPSSEGSINK [R9I] reads 2.4; that for LWVQGDIFCSKLKNRPSSEGSINK [R9C], 2.22; that for LWVQGDIFKSKLKNRPSSEGSINK [R9K], 3.02.
LWVQGDIFPSKLKNRPSSEGSINK [R9P]: the protein stability index was determined as 3.18.
The result for LWVQGDIFFSKLKNRPSSEGSINK [R9F] reads 2.57; that for LWVQGDIFHSKLKNRPSSEGSINK [R9H], 2.55.
In the case of LWVVGDIFRSKLKNRPSSEGSINK [Q4V], the protein stability index came out at 1.81.
LWVNGDIFRSKLKNRPSSEGSINK [Q4N]: the protein stability index worked out at 2.66.
As to LWVSGDIFRSKLKNRPSSEGSINK [Q4S], the protein stability index came to 3.29.
The result for LWVPGDIFRSKLKNRPSSEGSINK [Q4P] reads 2.74.
Next, LWVWGDIFRSKLKNRPSSEGSINK [Q4W]: 1.82; LWVYGDIFRSKLKNRPSSEGSINK [Q4Y]: 1.95; LWVTGDIFRSKLKNRPSSEGSINK [Q4T]: 2.41.
The result for LWVRGDIFRSKLKNRPSSEGSINK [Q4R] reads 1.87.
LWVQGDIWRSKLKNRPSSEGSINK [F8W]: the protein stability index turned out to be 2.51.
The result for LWVQGDIRRSKLKNRPSSEGSINK [F8R] reads 2.92; that for LWVQGDIPRSKLKNRPSSEGSINK [F8P], 4.1.
Turning to LWVQGDIQRSKLKNRPSSEGSINK [F8Q], the protein stability index worked out at 3.78.
Next, LWVQGDIARSKLKNRPSSEGSINK [F8A]: 3.43; LWVQGDIYRSKLKNRPSSEGSINK [F8Y]: 3.25; LWVQGDIGRSKLKNRPSSEGSINK [F8G]: 3.01.
The result for LWVQGDICRSKLKNRPSSEGSINK [F8C] reads 3.14; that for LWVQGDIIRSKLKNRPSSEGSINK [F8I], 2.62.
Next, LWVQGDILRSKLKNRPSSEGSINK [F8L]: 2.75.
As for LWVQGDIVRSKLKNRPSSEGSINK [F8V], the protein stability index worked out at 3.06.
As for LWVQGDITRSKLKNRPSSEGSINK [F8T], the protein stability index was determined as 3.3.
The result for LWVQGDIHRSKLKNRPSSEGSINK [F8H] reads 2.97; that for LWVQGDIKRSKLKNRPSSEGSINK [F8K], 3.23.
For the variant LWVQGDIDRSKLKNRPSSEGSINK [F8D], the protein stability index was 3.67.
The result for LWVQGDIERSKLKNRPSSEGSINK [F8E] reads 4.43; that for LWVQGDINRSKLKNRPSSEGSINK [F8N], 3.01.
LWVQGDISRSKLKNRPSSEGSINK [F8S]: the protein stability index worked out at 3.34.
Next, LWVQGDIMRSKLKNRPSSEGSINK [F8M]: 2.42.
The result for LWVQGIIFRSKLKNRPSSEGSINK [D6I] reads 2.69.
The result for LWVQGTIFRSKLKNRPSSEGSINK [D6T] reads 1.84.
On to LWVQGNIFRSKLKNRPSSEGSINK [D6N], for which the protein stability index was determined as 2.83.
Take LWVQGVIFRSKLKNRPSSEGSINK [D6V]: the protein stability index was determined as 1.43.
The result for LWVQGQIFRSKLKNRPSSEGSINK [D6Q] reads 1.99; that for LWVQGHIFRSKLKNRPSSEGSINK [D6H], 2.24; that for LWVQGFIFRSKLKNRPSSEGSINK [D6F], 1.58.
Next, LWVQGGIFRSKLKNRPSSEGSINK [D6G]: 2.64.
Next, LWVQGMIFRSKLKNRPSSEGSINK [D6M]: 2.61; LWVQGEIFRSKLKNRPSSEGSINK [D6E]: 2.63; LWVQGLIFRSKLKNRPSSEGSINK [D6L]: 1.71.

Source of the values: the supplement of paper PMC10567573.
